Source: patent publication US20210040201A1 (Innovent, published 2021)
Read-outs that look alike come from different tables or passages of the source.

T1: Human TIGIT expressed on the surface of cells (human, UniProt Q495A1 22-244)
T1 sequence: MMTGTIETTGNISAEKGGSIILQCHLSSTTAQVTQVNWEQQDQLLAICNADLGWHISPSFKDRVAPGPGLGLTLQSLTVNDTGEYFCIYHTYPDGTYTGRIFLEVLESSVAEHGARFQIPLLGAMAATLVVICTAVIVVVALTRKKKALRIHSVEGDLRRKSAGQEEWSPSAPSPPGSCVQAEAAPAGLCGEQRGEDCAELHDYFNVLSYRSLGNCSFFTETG

T2: Mouse TIGIT-his (ACRO, TIT-M52E6) (mouse, UniProt P86176 26-143, limits assumed)
T2 construct: Bought protein
T2 sequence (looked up): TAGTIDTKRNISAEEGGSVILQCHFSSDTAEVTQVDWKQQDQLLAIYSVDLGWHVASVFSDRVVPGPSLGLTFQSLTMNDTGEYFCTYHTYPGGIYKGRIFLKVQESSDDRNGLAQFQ

B1: ADI-30293 (antibody, human IgG4 S228P, kappa, F234A L235A, V domains shown)
VH: EVQLVESGGGLVQPGGSLRLSCAASGFTFSSYSMNWVRQAPGKGLEWVSYISSSGTINYADSVKGRFTISRDNAKNSLYLQMNSLRAEDTAVYYCARHRIADSPSRAFDIWGQGTMVTVSS
VL: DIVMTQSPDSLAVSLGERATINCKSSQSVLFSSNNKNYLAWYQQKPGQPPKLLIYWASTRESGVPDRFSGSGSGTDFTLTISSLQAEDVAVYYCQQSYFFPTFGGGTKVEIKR
B2: ADI-30296 (antibody, human IgG4 S228P, kappa, F234A L235A, V domains shown)
VH: EVQLVESGGGLVQPGGSLRLSCAASGFTIGGYSMNWVRQAPGKGLEWVSYISSSSTIHYADSVKGRFTISRDNAKNSLYLQMNSLRAEDTAVYYCARHRIGRSPSRAFDIWGQGTMVTVSS
VL: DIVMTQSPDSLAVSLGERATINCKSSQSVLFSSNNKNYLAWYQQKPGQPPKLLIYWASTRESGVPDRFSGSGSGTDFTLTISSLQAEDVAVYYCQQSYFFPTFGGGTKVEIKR
B3: ADI-27243 (antibody, human IgG4 S228P, kappa, F234A L235A, V domains shown)
VH: QLQLQESGPGLVKPSETLSLTCTVSGGSISSSRYYWGWIRQPPGKGLEWIGSIYYSGSTYYNPSLKSRVTISVDTSKNQFSLKLSSVTAADTAVYYCARDGLYHTPEYFQHWGQGTLVTVSS
VL: EIVLTQSPATLSLSPGERATLSCRASQSVSSYLAWYQQKPGQAPRLLIYDASNRATGIPARFSGSGSGTDFTLTISSLEPEDFAVYYCQQRFAFPYTFGGGTKVEIKR
B4: ADI-30302 (antibody, human IgG4 S228P, kappa, F234A L235A, V domains shown)
VH: QLQLQESGPGLVKPSETLSLTCTVSGGSIGSSQYYWGWIRQPPGKGLEWIGSIYRSGGTYYNPSLKSRVTISVDTSKNQFSLKLSSVTAADTAVYYCARDGLYHTPEYFQHWGQGTLVTVSS
VL: EIVLTQSPATLSLSPGERATLSCRASQSVSSYLAWYQQKPGQAPRLLIYDASNRATGIPARFSGSGSGTDFTLTISSLEPEDFAVYYCQQRFAFPYTFGGGTKVEIKR
B5: ADI-30336 (antibody, human IgG4 S228P, kappa, F234A L235A, V domains shown)
VH: QLQLQESGPGLVKPSETLSLTCTVSGGSISSSRYYWGWIRQPPGKGLEWIGSIYYSGSTYYNPSLKSRVTISVDTSKNQFSLKLSSVTAADTAVYYCARDGLYHTPEYFQHWGQGTLVTVSS
VL: EIVLTQSPATLSLSPGERATLSCRASQSVSSYLAWYQQKPGQAPRLLIYDASNRATGIPARFSGSGSGTDFTLTISSLEPEDFAVYYCQQRFAHPYTFGGGTKVEIKR
notes: Intact antibody, expressed in yeast and also in CHO cells (the assay field says which)
B6: 10A7 (anti-human TIGIT reference antibody from Genentech) (antibody, V domains shown)
VH: EVQLVESGGGLTQPGKSLKLSCEASGFTFSSFTMHWVRQSPGKGLEWVAFIRSGSGIVFYADAVRGRFTISRDNAKNLLFLQMNDLKSEDTAMYYCARRPLGHNTFDSWGQGTLVTVSS
VL: DIVMTQSPSSLAVSPGEKVTMTCKSSQSLYYSGVKENLLAWYQQKPGQSPKLLIYYASIRFTGVPDRFTGSGSGTDYTLTITSVQAEDMGQYFCQQGINNPLTFGDGTKLEIKR
B7: ADI-30306 (antibody, human IgG4 S228P, kappa, F234A L235A, V domains shown)
VH: QLQLQESGPGLVKPSETLSLTCTVSGGSISSSLYYWGWIRQPPGKGLEWIGSIYYSGSTFYNPSFKSRVTISVDTSKNQFSLKLSSVTAADTAVYYCAREAGRGTTGLLFDYWGQGTLVTVSS
VL: DIQMTQSPSTLSASVGDRVTITCRASQSISSWLAWYQQKPGKAPKLLIYKASSLESGVPSRFSGSGSGTEFTLTISSLQPDDFATYYCQQYGILPRTFGGGTKVEIKR
notes: as for B5
B8: ADI-30311 (antibody, human IgG4 S228P, kappa, F234A L235A, V domains shown)
VH: QLQLQESGPGLVKPSETLSLTCTVSGGSIASSVYYWGWIRQPPGKGLEWIGSIYYSGSTWYNPSLKSRVTISVDTSKNQFSLKLSSVTAADTAVYYCAREAGRTGTGLLFDYWGQGTLVTVSS
VL: DIQMTQSPSTLSASVGDRVTITCRASQSISSWLAWYQQKPGKAPKLLIYKASSLESGVPSRFSGSGSGTEFTLTISSLQPDDFATYYCQQYGILPRTFGGGTKVEIKR
B9: ADI-30286 (antibody, human IgG4 S228P, kappa, F234A L235A, V domains shown)
VH: EVQLLESGGGLVQPGGSLRLSCAASGFTFGPYGMSWVRQAPGKGLEWVSAISGSGASTWYADSVKGRFTISRDNSKNTLYLQMNSLRAEDTAVYYCAKDPGTHYSGYYYIWRYWGQGTLVTVSS
VL: EIVMTQSPATLSVSPGERATLSCRASQSVSSNLAWYQQKPGQAPRLLIYSASTRATGIPARFSGSGSGTEFTLTISSLQSEDFAVYYCQQYVPHPPFTFGGGTKVEIKR
B10: ADI-30288 (antibody, human IgG4 S228P, kappa, F234A L235A, V domains shown)
VH: EVQLLESGGGLVQPGGSLRLSCAASGFTFGPYGMSWVRQAPGKGLEWVSAISGSGASTWHADSVKGRFTISRDNSKNTLYLQMNSLRAEDTAVYYCAKDPGTDSTGYYYIWRYWGQGTLVTVSS
VL: EIVMTQSPATLSVSPGERATLSCRASQSVSSNLAWYQQKPGQAPRLLIYSASTRATGIPARFSGSGSGTEFTLTISSLQSEDFAVYYCQQYVPHPPFTFGGGTKVEIKR
B11: ADI-30272 (antibody, human IgG4 S228P, kappa, F234A L235A, V domains shown)
VH: QVQLVQSGAEVKKPGASVKVSCKASGYTFTEYYMHWVRQAPGQGLEWMGIISPSAGSTSYAQKFQGRVTMTRDTSTSTVYMELSSLRSEDTAVYYCARDHDIAAAGRLADYWGQGTLVTVSS
VL: DIQMTQSPSSVSASVGDRVTITCRASQGISSWLAWYQQKPGKAPKLLISAASSLQSGVPSRFSGSGSGTDFTLTISSLQPEDFATYYCQQAVILPITFGGGTKVEIKR
B12: ADI-30278 (antibody, human IgG4 S228P, kappa, F234A L235A, V domains shown)
VH: QVQLVQSGAEVKKPGASVKVSCKASGYTFTEYYMHWVRQAPGQGLEWMGIISPSAGSTKYAQKFQGRVTMTRDTSTSTVYMELSSLRSEDTAVYYCARDHDIRLAGRLADYWGQGTLVTVSS
VL: DIQMTQSPSSVSASVGDRVTITCRASQGISSWLAWYQQKPGKAPKLLISAASSLQSGVPSRFSGSGSGTDFTLTISSLQPEDFATYYCQQAVILPITFGGGTKVEIKR
notes: as for B5
B13: ADI-27297 (antibody, human IgG4 S228P, kappa, F234A L235A, V domains shown)
VH: QVQLVQSGAEVKKPGASVKVSCKASGYTFTSYYMHWVRQAPGQGLEWMGIINPSGGSTSYAQKFQGRVTMTRDTSTSTVYMELSSLRSEDTAVYYCARDHDIAAAGRLADYWGQGTLVTVSS
VL: DIQMTQSPSSVSASVGDRVTITCRASQGISSWLAWYQQKPGKAPKLLISAASSLQSGVPSRFSGSGSGTDFTLTISSLQPEDFATYYCQQAVILPITFGGGTKVEIKR
B14: ADI-27238 (antibody, human IgG4 S228P, kappa, F234A L235A, V domains shown)
VH: QVQLVQSGAEVKKPGASVKVSCKASGYTFTSYYMSWVRQAPGQGLEWMGIINPSGGSTSYAQKFQGRVTMTRDTSTSTVYMELSSLRSEDTAVYYCARARYPSSWPYGMDVWGQGTTVTVSS
VL: DIQMTQSPSSLSASVGDRVTITCRASQSINSYLNWYQQKPGKAPKLLIYAASSLQSGVPSRFSGSGSGTDFTLTISSLQPEDFATYYCQQSLLTPFTFGGGTKVEIKR
B15: ADI-30267 (antibody, human IgG4 S228P, kappa, F234A L235A, V domains shown)
VH: QVQLVQSGAEVKKPGASVKVSCKASGYTFRSYYMSWVRQAPGQGLEWMGIIDPSGGRTSFAQKFQGRVTMTRDTSTSTVYMELSSLRSEDTAVYYCARARYPESWPYGMDVWGQGTTVTVSS
VL: DIQMTQSPSSLSASVGDRVTITCRASQSINSYLNWYQQKPGKAPKLLIYAASSLQSGVPSRFSGSGSGTDFTLTISSLQPEDFATYYCQQSLLTPFTFGGGTKVEIKR
B16: ADI-30268 (antibody, human IgG4 S228P, kappa, F234A L235A, V domains shown)
VH: QVQLVQSGAEVKKPGASVKVSCKASGYTFGSYYMGWVRQAPGQGLEWMGIIDPSGGRTSYARKFQGRVTMTRDTSTSTVYMELSSLRSEDTAVYYCARARTPSSWPYGMDVWGQGTTVTVSS
VL: DIQMTQSPSSLSASVGDRVTITCRASQSINSYLNWYQQKPGKAPKLLIYAASSLQSGVPSRFSGSGSGTDFTLTISSLQPEDFATYYCQQSLLTPFTFGGGTKVEIKR

Tests used:
[1] = molecular target: T1, Human TIGIT expressed on the surface of …; assay: cell-based or functional assay
[2] = molecular target: T1, Human TIGIT expressed on the surface of …; assay: cell-based or functional assay; remark: listed apart in the source
[3] = molecular target: T2, Mouse TIGIT-his (ACRO, TIT-M52E6); assay: BLI (ForteBio), CHO-expressed antibody loaded on AHQ sensor
Description: The sensor with loaded antibodies was exposed to 100 nM TIGIT-his antigens until to a plateau, and then transferred to an assay buffer for dissociation for at least 2 min to measure the dissociation rate. Kinetic analysis was performed using a 1:1 binding model.

[4] = molecular target: T1, Human TIGIT expressed on the surface of …; assay: flow cytometry on CHO cells overexpressing human TIGIT; reference antibody in the run with CHO-expressed antibodies
[5] = molecular target: T1, Human TIGIT expressed on the surface of …; assay: flow cytometry on CHOS cells expressing human TIGIT; reference antibody
[6] = molecular target: T1, Human TIGIT expressed on the surface of …; assay: flow cytometry competition against 50 nM human CD155-mouse IgG2a Fc on CHOS cells expressing human TIGIT; positive control
[7] = molecular target: T1, Human TIGIT expressed on the surface of …; assay: as above; remark: listed apart in the source

Binder | EC50, MOA-based assay (luciferase reporter under IL2 promoter), CHO-expressed antibody [1] | EC50, MOA-based assay (luciferase reporter under IL2 promoter), yeast-expressed antibody [2] | other results
B1 | 1.62 nM | 1.56 nM | 
B2 |  | 1.09 nM | 
B3 |  | 297 nM | 
B4 |  | 0.983 nM | 
B5 | 1.27 nM | 3.33 nM | binding result [3]: no binding (tested: 100 nM TIGIT-his)
B6 |  |  | EC50 [4]: 0.195 nM; EC50 [5]: 0.269 nM; IC50 [6]: 0.325 nM; IC50 [7]: 0.741 nM; EC50, MOA-based assay (luciferase reporter under IL2 promoter) [2]: ~77.8 nM
B7 |  |  | binding result [3]: no binding (tested: 100 nM TIGIT-his)
B8 |  | 1.82 nM | 
B9 | 0.396 nM |  | 
B10 | 0.384 nM |  | 
B11 |  | 1.49 nM | 
B12 | 0.186 nM | 0.523 nM | binding result [3]: no binding (tested: 100 nM TIGIT-his)
B13 |  | ~25100 nM | 
B14 |  | 68.7 nM | 
B15 |  | 2.06 nM | 
B16 | 0.506 nM | 1.22 nM | 
